The values below come from patent US20150017162A1 (OMEROS, published 2015).

Assay [1] has as its target T1, human MASP-2 (human, UniProt O00187 16-686). Briefly: cell-based or functional assay.
Assay [2] deals with T1, human MASP-2. Briefly: cell-based or functional assay. This is another data set of the same source.

T1 sequence (O00187 16-686): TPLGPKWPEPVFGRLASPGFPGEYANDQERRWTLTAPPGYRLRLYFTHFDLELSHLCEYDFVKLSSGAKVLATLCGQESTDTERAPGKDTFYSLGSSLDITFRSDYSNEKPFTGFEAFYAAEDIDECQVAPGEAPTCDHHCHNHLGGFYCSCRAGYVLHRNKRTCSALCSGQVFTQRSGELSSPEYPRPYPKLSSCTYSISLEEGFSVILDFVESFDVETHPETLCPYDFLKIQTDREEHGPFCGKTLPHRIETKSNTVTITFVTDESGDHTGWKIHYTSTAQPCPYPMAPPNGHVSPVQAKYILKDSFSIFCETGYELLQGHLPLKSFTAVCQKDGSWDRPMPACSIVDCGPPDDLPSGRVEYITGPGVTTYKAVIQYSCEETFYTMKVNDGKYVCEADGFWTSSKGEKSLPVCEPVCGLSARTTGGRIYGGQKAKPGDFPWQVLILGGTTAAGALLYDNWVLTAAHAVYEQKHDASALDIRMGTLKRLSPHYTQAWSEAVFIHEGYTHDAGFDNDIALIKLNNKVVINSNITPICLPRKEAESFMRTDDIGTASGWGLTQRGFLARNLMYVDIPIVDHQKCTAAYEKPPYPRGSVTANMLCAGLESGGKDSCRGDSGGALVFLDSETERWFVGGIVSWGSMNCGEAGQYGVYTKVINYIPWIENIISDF

B1: scFv clone 17N16 (scFv)
scFv: QVQLQQSGPGLVKPSQTLSLTCAISGDSVSSTSAAWNWIRQSPSRGLEWLGRTYYRSKWYNDYAVSVKSRITINPDTSKNQFSLQLNSVTPEDTAVYYCARDPFGVPFDIWGQGTMVTVSSKLSGSASAPKLEEGEFSEARVSYVLTQPPSVSVAPGQTARITCGGNNIGSKNVHWYQQKPGQAPVLVVYDDSDRPSGIPERFSGSNSGNTATLTVSRVEAGDEADYYCQVWDTTTDHVVFGGGTKLTVLAAAGSEQKLISEEDLNSHHHHHH
Turning to B1, the “IC50, C3 assay, 1% human serum (average value)” value (shortened to “IC50, C3 assay, 1% human serum”) with human MASP-2 [1] was 68 nM.

B2: scFv daughter clone 17N16m_d17N9 (scFv)
chain: QVQLQQSGPGLVKPSQTLSLTCAISGDSVSSTSAAWNWIRQSPSRGLEWLGRTYYRSKWYNDYAVSVKSRITINPDTSKNQFSLQLNSVTPEDTAVYYCARDPFGVPFDIWGQGTMVTVSSSYELIQPPSVSVAPGQTATITCAGDNLGKKRVHWYQQRPGQAPVLVIYDDSDRPSGIPDRFSASNSGNTATLTITRGEAGDEADYYCQVWDIATDHVVFGGGTKLTVLAAAGSEQKLISE
On to B2, for which the “IC50, C3 assay, 1% human serum” value with human MASP-2 [1] worked out at 48 nM.

B3: scFv clone 17D20 (scFv)
scFv: QVTLKESGPVLVKPTETLTLTCTVSGFSLSRGKMGVSWIRQPPGKALEWLAHIFSSDEKSYRTSLKSRLTISKDTSKNQVVLTMTNMDPVDTATYYCARIRAGGIDYWGQGTLVTVSSKLSGSASAPKLEEGEFSEARVQPVLTQPPSVSVSPGQTASITCSGDKLGDKFAYWYQQKPGHSPVLVIYQDNKRPSGIPGRFSGSNSGNTATLTISGTQAMDEADYYCQAWDSSTAVFGTGTKVTVLAAAGSEQKLISEEDLNSHHHHHH
Turning to B3, the “IC50, C3 assay, 1% human serum” value with human MASP-2 [1] is 38 nM.

B4: NimoAb101 (antibody, V domains shown)
VH: EVQLVESGGGLVQPGRSLKLSCLVSGFTFSNFGMNWIRQAPGKGLEWVASISSGGTYIYHADTLKGRFTISRENAKNTLYLQMTSLRSEDTALYYCARGPYHSRYIPYLMDAWGQGASVTVSS
VL: DIQMTQSPGSLCASLGETVTIECRASDDIYSNLAWYQQKPGNSPQLLIFDGNRLADGVPSRFSGSGSGTQYSLKMKSLQFEDVASYFCQQYNNYPLTFGSGTKLEIKR
For the molecule B4, the “IC50, C4 deposition in full human serum” value in the assay with human MASP-2 [2] was 0.0318 µg/mL.
